Source: PMC6890836, “Exploiting Substrate Promiscuity of Ectoine Hydroxylase for Regio- and Stereoselective Modification of Homoectoine” (Frontiers in Microbiology, 2019)

What was measured:
Test in all cases: purified protein
purified protein [1] = substrate: CC1=N[C@H](C(=O)O)CCN1; format: biochemical, Stutzerimonas stutzeri; details: 10 mM 2-oxoglutarate, 1 mM FeSO4, 100 mM KCl, 100 mM TES pH 7.5, 35 °C, no catalase
purified protein [2] = substrate: CC1=NC(C(=O)O)CCCN1; format: biochemical, Stutzerimonas stutzeri; details: 10 mM 2-oxoglutarate, 1 mM FeSO4, 100 mM KCl, 100 mM TES pH 7.5, 35 °C, no catalase
purified protein [3] = substrate: CC1=N[C@H](C(=O)O)CCN1; format: biochemical, Sphingopyxis alaskensis; details: 10 mM 2-oxoglutarate, 1 mM FeSO4, 100 mM KCl, 100 mM TES pH 7.5, 15 °C, 1300 U bovine catalase
purified protein [4] = substrate: CC1=NC(C(=O)O)CCCN1; format: biochemical, Sphingopyxis alaskensis; details: 10 mM 2-oxoglutarate, 1 mM FeSO4, 100 mM KCl, 100 mM TES pH 7.5, 15 °C, 1300 U bovine catalase

Row | Protein | Km (purified protein [1]) | Km (purified protein [2]) | Km (purified protein [3]) | Km (purified protein [4])
1 | (Ps)EctD, ectoine hydroxylase from P. stutzeri A1501 (Stutzerimonas stutzeri A1501) (protein, full-length, Strep-tag II fusion (tag kept), from plasmid pMP41 in E. coli BL21(DE3); EctD is a dimer in solution) MQADLYPSRQEDQPSWQERLDPVVYRSDLENAPIAAELVERFERDGYLVIPNLFSADEVALFRAELERMRQDPAVAGSGKTIKEPDSGAIRSVFAIHKDNELFARVAADERTAGIARFILGGDLYVHQSRMNFKPGFTGKEFYWHSDFETWHIEDGMPRMRCLSCSILLTDNEPHNGPLMLMPGSHKHYVRCVGATPENHYEKSLRKQEIGIPDQNSLSELASRFGIDCATGPAGSVVFFDCNTMHGSNGNITPSARSNLFYVYNHVDNAVQAPFCEQKPRPAFVAERENFKPLDIRPQQYL | 2300 ± 200 µM | 2600 ± 200 µM | – | –
2 | (Sa)EctD, ectoine hydroxylase from S. alaskensis (Sphingopyxis alaskensis RB2256) (protein, full-length, Strep-tag II fusion (tag kept), from plasmid pMP40 in E. coli BL21(DE3); dimer) MQDLYPSRQRADAEMRPRLDPVVHSEWTNDAPISARQAAAFDRDGYIVLEDIFSADEVAFLQKAAGNLLADPAALDADTIVTEPQSNEIRSIFEIHAQSPVMARLAADARLADVARFLLGDEVYIHQSRLNYKPGFKGREFYWHSDFETWHVEDGMPRMRALSMSVLLAENTPHNGPLMVIPGSHRTYLTCVGETPDDHYLSSLKKQEYGVPDEESLAELAHRHGIVAPTGKPGTVILFDCNLMHGSNGNITPFPRANAFLVYNAVSNRLEKPFGVEKPRPWFLARRGEPAALRVERGPLVETVPA | – | – | 800 ± 100 µM | 3100 ± 300 µM
